Test results from the supplement of paper PMC9112550, “Optimization of the antimicrobial peptide Bac7 by deep mutational scanning” (BMC Biology, 2022).

Each sequence was assayed on Escherichia coli TOP10 (assay: shrunken log2 fold change of peptide-encoding DNA abundance (4.5 h post-induction vs induction); higher = less antimicrobial activity (less host growth inhibition)). Conditions: time post-induction: 4.5 h; library: site-saturation at positions 5, 18, 19, 20.
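Further: peptides expressed intracellularly from a pBAD plasmid library in pooled LB shake-flask culture, induced with 0.3% L-arabinose, DNA abundance read by NGS, three biological replicates, DESeq2 with apeglm shrinkage.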

Which “shrunken log2 fold change” value does the source give for RRIRVRPPRLPRPRPRPDRMPRP here?
The value was -0.268.

For RRIRMRPPRLPRPRPRPCLPPRP, which “shrunken log2 fold change” value is on record?
The value was 0.154.

With RRIRPRPPRLPRPRPRPVMHPRP as the sequence, how does the “shrunken log2 fold change” value read?
Its value is 0.15.

Which “shrunken log2 fold change” value does the source give for RRIRPRPPRLPRPRPRPHQPPRP here?
Its value is -0.129.

Which “shrunken log2 fold change” value does the source give for RRIRGRPPRLPRPRPRPFINPRP here?
Its value is -0.165.

With RRIRDRPPRLPRPRPRPPQRPRP as the sequence, how does the “shrunken log2 fold change” value read?
The value was 0.719.

How did the “shrunken log2 fold change” value turn out when RRIRSRPPRLPRPRPRPIYTPRP was run?
Its value is -0.548.

For RRIRKRPPRLPRPRPRPAHDPRP, which “shrunken log2 fold change” value is on record?
The value was 0.536.

RRIRCRPPRLPRPRPRPQFKPRP was tested. Which “shrunken log2 fold change” value did it give?
The value was -0.562.

How did the “shrunken log2 fold change” value turn out when RRIRFRPPRLPRPRPRPRMMPRP was run?
Its value is -0.404.

How did the “shrunken log2 fold change” value turn out when RRIRHRPPRLPRPRPRPWTSPRP was run?
Its value is -0.00277.

How did the “shrunken log2 fold change” value turn out when RRIRHRPPRLPRPRPRPFCVPRP was run?
Its value is -0.312.

How did the “shrunken log2 fold change” value turn out when RRIRSRPPRLPRPRPRPNSFPRP was run?
The value was -0.63.

RRIRLRPPRLPRPRPRPGCWPRP was tested. Which “shrunken log2 fold change” value did it give?
Its value is 0.482.

For RRIRFRPPRLPRPRPRPPGEPRP, which “shrunken log2 fold change” value is on record?
The value was 0.421.

RRIRERPPRLPRPRPRPILSPRP was tested. Which “shrunken log2 fold change” value did it give?
The value was -0.316.

With RRIRYRPPRLPRPRPRPVKQPRP as the sequence, how does the “shrunken log2 fold change” value read?
The value was -0.00131.

Which “shrunken log2 fold change” value does the source give for RRIRDRPPRLPRPRPRPGTYPRP here?
The value was -0.227.

How did the “shrunken log2 fold change” value turn out when RRIRRRPPRLPRPRPRPPYGPRP was run?
Its value is 0.0935.

Which “shrunken log2 fold change” value does the source give for RRIRCRPPRLPRPRPRPSIFPRP here?
Its value is -0.575.

How did the “shrunken log2 fold change” value turn out when RRIRGRPPRLPRPRPRPDVWPRP was run?
The value was 1.36.

How did the “shrunken log2 fold change” value turn out when RRIRTRPPRLPRPRPRPAKPPRP was run?
Its value is 0.583.

Which “shrunken log2 fold change” value does the source give for RRIRFRPPRLPRPRPRPRHDPRP here?
Its value is 0.0736.

With RRIRTRPPRLPRPRPRPMHEPRP as the sequence, how does the “shrunken log2 fold change” value read?
The value was -0.0192.

For RRIRIRPPRLPRPRPRPHGQPRP, which “shrunken log2 fold change” value is on record?
The value was -0.0468.

RRIRERPPRLPRPRPRPFLWPRP was tested. Which “shrunken log2 fold change” value did it give?
The value was 0.155.

With RRIRDRPPRLPRPRPRPNKLPRP as the sequence, how does the “shrunken log2 fold change” value read?
The value was -0.277.

With RRIRIRPPRLPRPRPRPQIHPRP as the sequence, how does the “shrunken log2 fold change” value read?
The value was -0.796.

RRIRTRPPRLPRPRPRPTKLPRP was tested. Which “shrunken log2 fold change” value did it give?
The value was -0.0813.

With RRIRKRPPRLPRPRPRPPIAPRP as the sequence, how does the “shrunken log2 fold change” value read?
Its value is 0.464.

With RRIRVRPPRLPRPRPRPEEYPRP as the sequence, how does the “shrunken log2 fold change” value read?
The value was -0.411.

Which “shrunken log2 fold change” value does the source give for RRIRTRPPRLPRPRPRPLPKPRP here?
The value was -0.0549.

For RRIRFRPPRLPRPRPRPFEFPRP, which “shrunken log2 fold change” value is on record?
Its value is -0.183.

Which “shrunken log2 fold change” value does the source give for RRIRERPPRLPRPRPRPDMMPRP here?
The value was 0.0556.

For RRIRIRPPRLPRPRPRPMGIPRP, which “shrunken log2 fold change” value is on record?
Its value is 0.000142.

For RRIRRRPPRLPRPRPRPNVEPRP, which “shrunken log2 fold change” value is on record?
The value was 0.318.

How did the “shrunken log2 fold change” value turn out when RRIRYRPPRLPRPRPRPYGCPRP was run?
The value was -0.143.

For RRIRSRPPRLPRPRPRPLDHPRP, which “shrunken log2 fold change” value is on record?
The value was 0.0458.

For RRIRQRPPRLPRPRPRPRKQPRP, which “shrunken log2 fold change” value is on record?
Its value is 0.505.

With RRIRPRPPRLPRPRPRPDCSPRP as the sequence, how does the “shrunken log2 fold change” value read?
The value was 0.152.

With RRIRRRPPRLPRPRPRPHQIPRP as the sequence, how does the “shrunken log2 fold change” value read?
The value was 0.0553.

For RRIRGRPPRLPRPRPRPHESPRP, which “shrunken log2 fold change” value is on record?
Its value is 0.784.

RRIRKRPPRLPRPRPRPWDSPRP was tested. Which “shrunken log2 fold change” value did it give?
Its value is 0.0485.

For RRIRHRPPRLPRPRPRPAKGPRP, which “shrunken log2 fold change” value is on record?
The value was 0.0449.

With RRIRTRPPRLPRPRPRPCQVPRP as the sequence, how does the “shrunken log2 fold change” value read?
Its value is -0.304.

With RRIRSRPPRLPRPRPRPCHMPRP as the sequence, how does the “shrunken log2 fold change” value read?
The value was -0.233.

With RRIRCRPPRLPRPRPRPQWFPRP as the sequence, how does the “shrunken log2 fold change” value read?
Its value is -0.106.

Which “shrunken log2 fold change” value does the source give for RRIRGRPPRLPRPRPRPAPSPRP here?
The value was 0.806.

How did the “shrunken log2 fold change” value turn out when RRIRQRPPRLPRPRPRPTVTPRP was run?
Its value is -0.47.

For RRIRGRPPRLPRPRPRPNFQPRP, which “shrunken log2 fold change” value is on record?
The value was 0.122.

How did the “shrunken log2 fold change” value turn out when RRIRERPPRLPRPRPRPWYRPRP was run?
Its value is -0.217.

RRIRNRPPRLPRPRPRPRASPRP was tested. Which “shrunken log2 fold change” value did it give?
The value was 0.211.

RRIRYRPPRLPRPRPRPLSNPRP was tested. Which “shrunken log2 fold change” value did it give?
The value was -0.233.

Which “shrunken log2 fold change” value does the source give for RRIRFRPPRLPRPRPRPKTSPRP here?
The value was -0.0999.

For RRIRVRPPRLPRPRPRPPNQPRP, which “shrunken log2 fold change” value is on record?
Its value is 0.184.

RRIRMRPPRLPRPRPRPWIDPRP was tested. Which “shrunken log2 fold change” value did it give?
The value was -0.146.

For RRIRVRPPRLPRPRPRPMFNPRP, which “shrunken log2 fold change” value is on record?
Its value is -0.4.

With RRIRMRPPRLPRPRPRPTSVPRP as the sequence, how does the “shrunken log2 fold change” value read?
Its value is 0.172.

For RRIRSRPPRLPRPRPRPKKGPRP, which “shrunken log2 fold change” value is on record?
The value was 0.0379.

For RRIRPRPPRLPRPRPRPGIWPRP, which “shrunken log2 fold change” value is on record?
Its value is 0.157.

Which “shrunken log2 fold change” value does the source give for RRIRMRPPRLPRPRPRPYYPPRP here?
The value was -0.159.

With RRIRHRPPRLPRPRPRPMCAPRP as the sequence, how does the “shrunken log2 fold change” value read?
The value was -0.446.

For RRIRLRPPRLPRPRPRPPEGPRP, which “shrunken log2 fold change” value is on record?
Its value is 0.662.

RRIRCRPPRLPRPRPRPWDNPRP was tested. Which “shrunken log2 fold change” value did it give?
Its value is -0.291.

Which “shrunken log2 fold change” value does the source give for RRIRKRPPRLPRPRPRPGALPRP here?
Its value is 0.656.

RRIRMRPPRLPRPRPRPQKAPRP was tested. Which “shrunken log2 fold change” value did it give?
The value was 0.0203.

How did the “shrunken log2 fold change” value turn out when RRIRARPPRLPRPRPRPFWLPRP was run?
The value was 0.0704.

How did the “shrunken log2 fold change” value turn out when RRIRVRPPRLPRPRPRPMDCPRP was run?
Its value is -0.0385.

With RRIRWRPPRLPRPRPRPIDWPRP as the sequence, how does the “shrunken log2 fold change” value read?
Its value is 0.45.

With RRIRMRPPRLPRPRPRPCKPPRP as the sequence, how does the “shrunken log2 fold change” value read?
Its value is -0.173.

Which “shrunken log2 fold change” value does the source give for RRIRDRPPRLPRPRPRPDVGPRP here?
Its value is 0.232.

How did the “shrunken log2 fold change” value turn out when RRIRDRPPRLPRPRPRPTQTPRP was run?
Its value is 0.121.

RRIRRRPPRLPRPRPRPEYGPRP was tested. Which “shrunken log2 fold change” value did it give?
The value was -0.0277.

With RRIRGRPPRLPRPRPRPTNKPRP as the sequence, how does the “shrunken log2 fold change” value read?
The value was 0.242.

RRIRRRPPRLPRPRPRPQCKPRP was tested. Which “shrunken log2 fold change” value did it give?
The value was -0.268.

Which “shrunken log2 fold change” value does the source give for RRIRCRPPRLPRPRPRPAKWPRP here?
Its value is 0.235.

Which “shrunken log2 fold change” value does the source give for RRIRCRPPRLPRPRPRPTWPPRP here?
Its value is 0.371.

For RRIRPRPPRLPRPRPRPLVPPRP, which “shrunken log2 fold change” value is on record?
The value was 0.125.

For RRIRNRPPRLPRPRPRPDPKPRP, which “shrunken log2 fold change” value is on record?
The value was -0.00647.

For RRIRHRPPRLPRPRPRPHRTPRP, which “shrunken log2 fold change” value is on record?
Its value is -0.179.

With RRIRYRPPRLPRPRPRPGLPPRP as the sequence, how does the “shrunken log2 fold change” value read?
Its value is 0.107.

How did the “shrunken log2 fold change” value turn out when RRIRFRPPRLPRPRPRPNTEPRP was run?
Its value is -0.479.

How did the “shrunken log2 fold change” value turn out when RRIRPRPPRLPRPRPRPHNVPRP was run?
The value was -0.104.

For RRIRGRPPRLPRPRPRPYSGPRP, which “shrunken log2 fold change” value is on record?
Its value is -0.0221.

How did the “shrunken log2 fold change” value turn out when RRIRVRPPRLPRPRPRPINDPRP was run?
Its value is 0.0664.

RRIRDRPPRLPRPRPRPYRWPRP was tested. Which “shrunken log2 fold change” value did it give?
The value was -0.146.

Which “shrunken log2 fold change” value does the source give for RRIRRRPPRLPRPRPRPWEIPRP here?
Its value is -0.0233.

Which “shrunken log2 fold change” value does the source give for RRIRTRPPRLPRPRPRPDWGPRP here?
The value was 0.194.

For RRIRNRPPRLPRPRPRPYMQPRP, which “shrunken log2 fold change” value is on record?
The value was -0.315.

For RRIRIRPPRLPRPRPRPQADPRP, which “shrunken log2 fold change” value is on record?
The value was -0.0941.

RRIRDRPPRLPRPRPRPNMNPRP was tested. Which “shrunken log2 fold change” value did it give?
The value was -0.41.

For RRIRLRPPRLPRPRPRPTNNPRP, which “shrunken log2 fold change” value is on record?
The value was -0.524.

RRIRMRPPRLPRPRPRPIQVPRP was tested. Which “shrunken log2 fold change” value did it give?
The value was -0.00663.

RRIRDRPPRLPRPRPRPKTIPRP was tested. Which “shrunken log2 fold change” value did it give?
The value was -0.00641.

For RRIRARPPRLPRPRPRPDDQPRP, which “shrunken log2 fold change” value is on record?
Its value is 1.41.

RRIRLRPPRLPRPRPRPKCIPRP was tested. Which “shrunken log2 fold change” value did it give?
The value was -0.9.

Which “shrunken log2 fold change” value does the source give for RRIRFRPPRLPRPRPRPSDRPRP here?
The value was -0.853.

RRIRGRPPRLPRPRPRPFTNPRP was tested. Which “shrunken log2 fold change” value did it give?
The value was 0.0545.

For RRIRHRPPRLPRPRPRPIRQPRP, which “shrunken log2 fold change” value is on record?
Its value is 0.0104.

Which “shrunken log2 fold change” value does the source give for RRIRPRPPRLPRPRPRPPMDPRP here?
The value was 0.126.

With RRIRQRPPRLPRPRPRPIHHPRP as the sequence, how does the “shrunken log2 fold change” value read?
The value was -0.167.

RRIRRRPPRLPRPRPRPANHPRP was tested. Which “shrunken log2 fold change” value did it give?
The value was 0.097.

Which “shrunken log2 fold change” value does the source give for RRIRNRPPRLPRPRPRPMLTPRP here?
The value was -0.296.

With RRIRARPPRLPRPRPRPFIHPRP as the sequence, how does the “shrunken log2 fold change” value read?
Its value is -0.45.

How did the “shrunken log2 fold change” value turn out when RRIRMRPPRLPRPRPRPMMDPRP was run?
Its value is 0.0325.

With RRIRSRPPRLPRPRPRPDGSPRP as the sequence, how does the “shrunken log2 fold change” value read?
The value was -0.0196.

With RRIRERPPRLPRPRPRPAKEPRP as the sequence, how does the “shrunken log2 fold change” value read?
Its value is 0.0889.

RRIRCRPPRLPRPRPRPNEYPRP was tested. Which “shrunken log2 fold change” value did it give?
Its value is -0.587.

With RRIRPRPPRLPRPRPRPTWYPRP as the sequence, how does the “shrunken log2 fold change” value read?
The value was -0.133.
